# Values quoted from earlier work in paper PMC2478715.
# Test system: HMGB1 (purified from mammalian source) (rat (liver nuclei), human (HeLa) or monkey (CV1); preparation per gel not specified)
# Assay: cited value; method not stated here
# Conditions: 50 mM NaCl, 25 mM Tris-HCl pH 7.5, 1 mM DTT, 1 mM EDTA, 0.1% Triton X-100, 100 ug/mL BSA, 2% glycerol, 25 uL, 20 min at 37 C; 4% PAGE in 0.5x TBE at room …
substance,measurement,value
"hcDNA (hemicatenated DNA loop, 120 bp fragment)",Kd,< 0.15 pM
